This note sets out measurements from the nanobody polyreactivity screen of Harvey et al. (2022).

This data set can be described thus: yeast display, Sf9 membrane polyspecificity reagent, FACS + sequencing; frameworks hold sequencing errors. In a few lines:
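Genes from sorted yeast were amplified by colony PCR, read by MiSeq 2 × 250 sequencing and filtered on CDR length. These cells carried a synthetic nanobody library in Saccharomyces cerevisiae BJ5465 and were sorted by FACS into low and high (top ~1%) gates on anti-HA and streptavidin fluorescence. Polyreactivity is labelled according to the gate of origin.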
Turning to “QVQLVESGGGLVQAGGSLRLSCAASGLTFSKYVMGWYIQAPGKERELVAAITWSGGRTYYADSVKGRFTISRDNAKNTVYLQMNSLKPEDTAVYYCNRKLKGLGYEYDYWGQGTQVTVSS”, the “polyreactivity (PSR sort gate)” value is listed as “high polyreactivity”. Under “QVQLVESGGGLVQAGGSLRLSCAASGIIFHYYAMGWYRQAPGKERDLVAAISGSGGSTYYADSVKGRFTISRDNAKNTVFLQMNSLKPEDTAVYYCAAILWGGGGYWGQGTQVTVSS” stands “high polyreactivity”; under “QVQLVESGGGLVQAGGSLRLSCAASGRNFNYNAMGWYRQAPGKERELVAVISWSGRTYYADSVKGRFTISRDNAKNTVYLLMNSLKPEDTAVYYCNKRSYRVLYGYWGQGTQVTVSS”, “high polyreactivity”; under “QVQLVESGGGLVQAGGSLRLSCAASGRTFLINAMGWYRQAPGKEWELVAAITQSGGSTYYADSVKGRFTISRDKAKNTVYLQLNSLKPEDTAVYYCAADVPGVYPYDYWGQGTQVTVSS”, “low polyreactivity”. Under “QVQLVESGGGLDQAGGSLRLSCAASGSIFRSYAMGWYRQAPGKERELVATIDRSGGSTYYADSVKGRFTISRDNAKNTVYLQMNSLKPEDTAVYYCNKTPHFPRPGFNYWGQGTQVTVSS” stands “low polyreactivity”; under “QVQLVESGGGLVQAGGSLRLSCAASVRTFSAYAMGCSRQAPGKERELVARITSVDSTNYSDSVNGRFTFSRDNAKNNVYLQMNSLKPEDTAVYSCNATFGYPFVDYDDYWGQGTQVTVSS”, “low polyreactivity”; under “QVQLVESGGGLVQAGGSLRLSCAASGSIFEIYAMGWYRQAPGKERELVAAISWSGGRTYYADSVKGRFTISRDNAKNTVYLQMNSLKPEDTAVYYCNAGQWRYPGLYYYWGQVTQVTVSS”, “high polyreactivity”. For the sequence “QVQLVESAGGLVQAGGSLRLSCAASGSTFGKYAMGWDRHAPGKERELVAAISWSGGSTYYADSVKGRFTISRDNAKNTVYLQMNSLKPEDTAVYYCTVYRYDGDYWGQGTQVTVSS”, the “polyreactivity (PSR sort gate)” value is recorded as “high polyreactivity”. As for “QVQLVESGGGLVQAGGSLRLSCAASGFTFDYYTMGWSRQAPGKERELVAAISWSGGSTYYADSVKGRFTISRDNAKNTVYLQMNSLKPEDTAVYYCAVDGPKTDDIENYWGQGTQVTVSS”, the entry is “low polyreactivity”; as for “QVQLVESGGGIVQAGGSFRLSCAASGSIFVVYAMGWYRQAPGKERELVAAITSGGSTYYADSVKGRFTISRDNAKNTVYLQMNSLKPEDTAVYYCATTYRDGVYELTTFDYWGQGTQVTVSS”, “low polyreactivity”; as for “QVQLVESGGGLVQAGGSLRLSCAASGSTFRKYAMGWYRQAPGKEREFVAAITWSTGTTYYADSVKGRFTISRDNAQNTVYLQMNSLKPEDTAVYYCSADSKPPHELYESIEHESWGQGTQVTVSA”, “low polyreactivity”. Under “QVQLVESGGGLVQAGGSLRLSCAASGSTFDRNAMGWYRQAPWKERELVATINSDDSKNYADSVKGRFTISRDNAKNTVYLQMNSLKPEDTAVYYCAARLYVTPILSYVERYTNDYWGQGTQVTVSS” stands “low polyreactivity”; under “QVQLVESGGVLVQAGGSLRLSCAASGFTFVSNDMGWYRQAPGKERELVAAIRYRGGDTYYADSVKGRFTISRDNAKNTVYLQMNSLKPEDTAVYYCATGKRAYSSYLFDYWGQGTQVTVSS”, “low polyreactivity”; under “QVQLVESGGGLVQAGGSLRLSCAASGTTFAGNAMGWYRQAPGKERELVAAITFSGGRTDYADSVKGCFTISRDNAKNTVYLQMNSLKPEDTAVYYCAAPADDTVHYQNYYWGQGTQVTVSS”, “low polyreactivity”. As for “QVQLVESGGGLVQAGGSLRLSCAASGSTFAQNGLGWYRQAPGKERELVAAITSSGSTNYADSVKGRFTISRDNAKNTVYLQMNSLKPEDTAVYYCAKDVLAPYTRHDYWGQGTQVTVSS”, the entry is “low polyreactivity”; as for “QVQLVESGGGLVQAGCSLRLSCAASGIIYINYAMGWYRQAPGKERELVAVITRGGSTYYADSVKGRFTISRDNAKNTVYLLMNSLKPEDTAVYYCNARYLSWWTGRFNYWGQGTQVTVSS”, “high polyreactivity”; as for “QVQLVESGGGLVQAGGRLRLSCAASGIIFPRYMGWYRQAPGKERELVAAIRWSSDDTNYADSVKGRFTISRDNAKNTVYLQMNSLKPEDTAVYYCAAHSYYDRTIQFEFSARTYDYWGQGTQVTVSS”, “low polyreactivity”.

On to “QVQLVESGGGLFQAGGSLRLSCAASGRIFAYYTMGWYIQAPGKERELVAAITKRGGSTYYADSVKGRFTISRDNAKNTFYLQMNSLKPEDTAVYYCAADPNRYRYRSPHDYWGQGTQVTVSS”, for which the “polyreactivity (PSR sort gate)” value is reported as “high polyreactivity”. Under “QVHLVESGGGLVQAGGSLRLSCAASGSTFGYYAMGWYRQAPGKERELVAAIRYSGGTTYYADSVKGRFTISRDNAKNTVYLQMNSLKPEDTAVYYCAAVYTSGYYYWGQGTQVTVSS” stands “high polyreactivity”; under “QVQLVESGGGLVQAGGSLRLSCAASGFTVYSYPLGWYRQAPGKERELVAAITRSGGITYYADSVKGRFTISRDNAKNTVYLQMNSLKPEDTAVYYCNAYRGGLSSEHYYWGQGTQVTVSS”, “high polyreactivity”; under “QVQLVESGGGLVQAGGSLRLSCAASGSTFYYNVMGSYRQAPGKERELVAAITLSGGSTYADSVKGRFTISRDNAKKTVYLQINSLKPEDTAVYYCAKKGRYGRWGYKFDYWGQGTQVTVSS”, “low polyreactivity”. Turning to “QVQLVESGAGLVQAGGSLRLSCADSVNTFWYYTMGWYRQAPGKERELVAAISRGGRPYYADSVKGRFTISRDNAKNTVYLQMNSLKPEDTAVYNCNKPAPYTGSFDRSGIFDYWGQGTQVTVSS”, the “polyreactivity (PSR sort gate)” value is “high polyreactivity”. “QVQLVESGGGLDQAGGSLRLSCAASGLTFKWYAMGWYRQAPGKERELVAAIRTSAGSTYYADSVKGRFTISRDNAKNTVYLQMNSLKPEDTAVYYCNAVGYVFRYVYQYDYWGQCTQVTVSS”: the “polyreactivity (PSR sort gate)” value is reported as “low polyreactivity”. As for “QVQLVESGGGLVQAGGSLRLSCAASGSIFDIYAMGWYRQAPGKERELVATITWDGVSTYYADSVKGRFTISRDNAKNTVYLQMNSLKPEDTAVYYCNVVVRYPSAYDYWGQGTQVTVSS”, the entry is “high polyreactivity”. With “QVQLVESGGGLVQAGGSLRLSCAASGSTFKGNTMGWYRQAPGKERELVAAISWRGGSTYYADSVKGRFTISRDNAKNTVYLQMNSMKPEDTAVYYCAAKSHWWWRGYYYLGQGTQVTVSS”, the “polyreactivity (PSR sort gate)” value is given as “high polyreactivity”. As for “QVQLEETGGGLVQAGGSLRLSCAASGLTFGVYAMGRYRQAPGKEMELVAAITWRGDTTYYADSVKGRFTISRYNAKNTVYLQMNSLKPEDSAVYYCAKDVPYRRVRSEYWGQGTQVTVSS”, the entry is “low polyreactivity”.

As to “QVQLVESGGGLVQAGGSLRLSCAASGSTFWSYAMGWYRQAPGKERELVASISRRGGSTSYADSVKGRFTISRDNAKNTVYLQMNSLKPEDTAVYYCAARLLRTTKPRSGYGYWGQGTQVTVSS”, the “polyreactivity (PSR sort gate)” value was “high polyreactivity”. Consider “QVQLVESGGGLVQAGGSLRLSCAASGSIFYVNAMGWYRQAPGTERELVAAISWRSGRTYYADSVKGRFTISRDHAKNTVYLQMHSLKPEDTAVYYCAARVRRGSTQAQYYYWGQGTQVTVSS”, for which the “polyreactivity (PSR sort gate)” value is given as “high polyreactivity”. Regarding “QVQLVESGGGLVQAGGSLRLSCAASGFTFDKYGMGWYRQAPGKERELVAAISSGGSTNYADSVKGRFTISRDNAKNTVYLQMNSLKPEDSAVYYCAARYYRYGRFRAYSWWTYGYWGQGTQVTVSS”, the “polyreactivity (PSR sort gate)” value is listed as “high polyreactivity”. Regarding “QVQLVESGGGLVQAGGSLRLSCAASGSTFIFNAMGWYRQAPGKERELVAAISWRLGRTYYADSVKGRFTISRDNAKKTVYLQMNSLKPEDTAVYYCARDYSRHKGDYWGQGTQVTVSS”, the “polyreactivity (PSR sort gate)” value is “low polyreactivity”.
